Experimental findings from patent US20260250421A1 (BIOCYTOGEN PHARMACEUTICALS BEIJING, published 2026) are described below.

As a reminder, the Kd is the free concentration of one partner at which half of the binding sites on the other are occupied at equilibrium, for simple one-to-one binding. By koff is commonly meant the first-order rate constant of dissociation. Broadly, the kon is the second-order rate constant of association.

Read-outs that look alike come from different tables or passages of the source.

Holding throughout (test): SPR Biacore 8K, Ab on Protein A chip
(In SPR one partner is held on a chip, and binding of the other changes the refractive index at the surface.)

Assay [1] has as its target T1, His-tagged human TROP2 protein (human, UniProt P09758 27-274).
T1 construct: Bought protein; also called hTROP2-His; ACRO Biosystems Cat# TR2-H5223; not shown: His tag
T1 sequence (looked up): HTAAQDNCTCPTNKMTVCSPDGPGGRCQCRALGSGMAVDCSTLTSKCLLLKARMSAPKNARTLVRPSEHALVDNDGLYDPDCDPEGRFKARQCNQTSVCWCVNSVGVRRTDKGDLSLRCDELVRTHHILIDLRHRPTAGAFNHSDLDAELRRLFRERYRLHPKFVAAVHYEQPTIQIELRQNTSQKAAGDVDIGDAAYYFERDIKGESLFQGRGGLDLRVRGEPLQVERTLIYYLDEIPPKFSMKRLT
As to the method:
(§1) The affinity of the anti-TROP2 antibodies to His-tagged human TROP2 protein (hTROP2-His, ACRO Biosystems Inc., Cat #: TR2-H5223), His-tagged cynomolgus monkey TROP2 protein (cTROP2-His, ACRO Biosystems Inc., Cat #: TR2-R52H3) and His-tagged dog TROP2 protein (dTROP2-His, ACRO Biosystems Inc., Cat #: TR2-C52H4) were measured by surface plasmon resonance (SPR) using Biacore™ (Biacore, INC, Piscataway N.J.) 8K biosensor equipped with pre-immobilized Protein A sensor chips.
(§2) Purified anti-TROP2 antibodies were diluted to 1 μg/mL and then injected into the Biacore™ 8K biosensor at 10 μL/min for about 50 seconds to achieve a desired protein density (e.g., about 350 response units (RU)). The His-tagged TROP2 protein at a concentration of 200 nM was then injected at 30 μL/min for 180 seconds. Dissociation was monitored for 400 seconds. The chip was regenerated after the last injection of each titration with glycine (pH 2.0, 30 μL/min for 30 seconds).

Assay [2] concerns the target T2, His-tagged monkey TROP2 protein (cynomolgus monkey; Rhesus …, UniProt A0A5F8AGB8 27-274).
T2 construct: also called cTROP2-His; ACRO Biosystems Cat# TR2-R52H3
T2 sequence: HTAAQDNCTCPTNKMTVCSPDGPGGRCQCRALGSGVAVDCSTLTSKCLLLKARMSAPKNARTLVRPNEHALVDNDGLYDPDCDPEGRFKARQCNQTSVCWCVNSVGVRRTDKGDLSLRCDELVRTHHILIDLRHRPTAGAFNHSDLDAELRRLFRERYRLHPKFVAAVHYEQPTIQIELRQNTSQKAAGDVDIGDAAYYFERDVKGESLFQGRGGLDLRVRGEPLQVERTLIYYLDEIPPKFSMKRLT
As to the method:
as §1, §2

Assay [3] deals with T3, His-tagged dog PTK7 protein (dog, UniProt Q13308 31-703 (human entry)).
T3 construct: also called dPTK7-His
T3 chain: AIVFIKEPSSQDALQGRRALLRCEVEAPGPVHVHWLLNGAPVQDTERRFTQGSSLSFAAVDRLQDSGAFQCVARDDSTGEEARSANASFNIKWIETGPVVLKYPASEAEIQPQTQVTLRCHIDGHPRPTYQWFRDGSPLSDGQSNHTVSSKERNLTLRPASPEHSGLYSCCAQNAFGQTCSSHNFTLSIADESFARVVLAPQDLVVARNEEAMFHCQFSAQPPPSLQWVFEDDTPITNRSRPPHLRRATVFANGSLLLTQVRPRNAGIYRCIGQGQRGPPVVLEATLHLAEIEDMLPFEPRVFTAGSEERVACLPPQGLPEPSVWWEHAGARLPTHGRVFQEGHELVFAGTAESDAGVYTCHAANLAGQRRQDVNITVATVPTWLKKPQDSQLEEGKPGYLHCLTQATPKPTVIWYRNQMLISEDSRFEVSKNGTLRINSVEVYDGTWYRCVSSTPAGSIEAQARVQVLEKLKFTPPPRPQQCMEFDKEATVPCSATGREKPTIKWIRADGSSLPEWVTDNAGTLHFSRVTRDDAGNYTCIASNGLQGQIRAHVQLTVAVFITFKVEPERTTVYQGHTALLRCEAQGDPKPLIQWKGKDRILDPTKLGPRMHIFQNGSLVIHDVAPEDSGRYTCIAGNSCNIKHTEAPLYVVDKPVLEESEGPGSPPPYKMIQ
As to the method:
(§3) The affinity of the anti-PTK7/TROP2 bispecific antibodies to His-tagged human TROP2 protein (hTROP2-His, ACRO Biosystems Inc., Cat #: TR2-H5223), His-tagged […] monkey TROP2 protein (cTROP2-His, ACRO Biosystems Inc., Cat #: Cat: TR2-R52H3), His-tagged dog TROP2 protein (dTROP2-His, ACRO Biosystems Inc., Cat #: TR2-C52H4), hPTK7-His, cPTK7-His and dPTK7-His were measured by surface plasmon resonance (SPR) using Biacore™ (Biacore, INC, Piscataway N.J.) 8K biosensor equipped with pre-immobilized Protein A sensor chips.

The target of assay [4] is T4, His-tagged human PTK7 protein (human, UniProt Q13308 31-704).
T4 construct: Bought protein; also called hPTK7-His; not shown: His tag
T4 sequence: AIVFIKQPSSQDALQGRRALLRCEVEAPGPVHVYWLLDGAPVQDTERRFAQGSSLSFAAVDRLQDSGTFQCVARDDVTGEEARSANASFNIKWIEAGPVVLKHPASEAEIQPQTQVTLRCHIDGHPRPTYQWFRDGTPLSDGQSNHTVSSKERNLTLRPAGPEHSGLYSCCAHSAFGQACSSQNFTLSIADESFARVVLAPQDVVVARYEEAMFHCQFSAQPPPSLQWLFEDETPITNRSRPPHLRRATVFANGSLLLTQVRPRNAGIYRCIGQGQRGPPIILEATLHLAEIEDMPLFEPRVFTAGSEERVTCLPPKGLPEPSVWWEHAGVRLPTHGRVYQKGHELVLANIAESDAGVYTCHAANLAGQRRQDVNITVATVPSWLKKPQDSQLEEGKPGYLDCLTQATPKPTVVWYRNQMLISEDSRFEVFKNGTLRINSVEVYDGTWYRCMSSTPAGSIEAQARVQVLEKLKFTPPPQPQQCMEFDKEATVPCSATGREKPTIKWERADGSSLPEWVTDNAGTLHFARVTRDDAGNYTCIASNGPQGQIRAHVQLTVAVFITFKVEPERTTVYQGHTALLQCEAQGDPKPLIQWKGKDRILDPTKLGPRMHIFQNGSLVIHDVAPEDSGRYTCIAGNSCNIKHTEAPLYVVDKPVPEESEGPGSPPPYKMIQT
The protocol:
as §3

Assay [5] addresses T5, His-tagged cynomolgus monkey PTK7 protein (cynomolgus monkey, UniProt A0A2K5VNI5 39-712).
T5 construct: Bought protein; also called cPTK7-His; ACRO Biosystems Cat# PT7-C52H3; not shown: His tag
T5 sequence: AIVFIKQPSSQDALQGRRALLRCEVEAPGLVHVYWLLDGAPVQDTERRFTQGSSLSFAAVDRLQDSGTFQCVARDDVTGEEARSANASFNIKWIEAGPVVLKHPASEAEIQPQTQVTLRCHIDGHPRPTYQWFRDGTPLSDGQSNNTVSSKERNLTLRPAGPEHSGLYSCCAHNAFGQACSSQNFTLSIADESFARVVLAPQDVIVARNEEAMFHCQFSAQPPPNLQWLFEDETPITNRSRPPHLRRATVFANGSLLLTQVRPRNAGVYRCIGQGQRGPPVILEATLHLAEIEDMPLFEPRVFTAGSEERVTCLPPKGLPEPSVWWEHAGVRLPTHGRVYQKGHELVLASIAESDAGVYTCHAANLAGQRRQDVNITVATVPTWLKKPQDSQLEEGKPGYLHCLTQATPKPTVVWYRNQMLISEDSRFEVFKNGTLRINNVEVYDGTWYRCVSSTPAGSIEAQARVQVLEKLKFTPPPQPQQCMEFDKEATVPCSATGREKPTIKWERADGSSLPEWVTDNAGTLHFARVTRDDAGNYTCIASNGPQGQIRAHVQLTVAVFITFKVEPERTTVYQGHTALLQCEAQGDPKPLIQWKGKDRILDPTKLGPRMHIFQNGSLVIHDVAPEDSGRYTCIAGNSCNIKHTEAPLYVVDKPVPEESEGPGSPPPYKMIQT
As to the method:
as §3

Assay [6] addresses T1, His-tagged human TROP2 protein. As to the method:
as §3
The source holds these as a separate data set.

Assay [7] concerns the target T2, His-tagged monkey TROP2 protein. This is another data set of the same source.

B1: DS-1062 analog-LALA (antibody, V domains shown)
VH: QVQLVQSGAEVKKPGASVKVSCKASGYTFTTAGMQWVRQAPGQGLEWMGWINTHSGVPKYAEDFKGRVTISADTSTSTAYLQLSSLKSEDTAVYYCARSGFGSSYWYFDVWGQGTLVTVSS
VL: DIQMTQSPSSLSASVGDRVTITCKASQDVSTAVAWYQQKPGKAPKLLIYSASYRYTGVPSRFSGSGSGTDFTLTISSLQPEDFAVYYCQQHYITPLTFGQGTKLEIKR
notes: also called DS-1062 analog with LALA mutations
B1: in assay [1], the Kd was found to be 37 nM, the koff came to 0.00411 s⁻¹ and the kon was 111000 M⁻¹ s⁻¹. In assay [2], this molecule showed a Kd of 32.5 nM, a dissociation rate constant (koff) of 0.00409 s⁻¹ and a kon of 126000 M⁻¹ s⁻¹.

B2: 18E9 (antibody, V domains shown)
VH: QLQLQQSGPGLLKPSETLSLTCTVSGGSISSSYYFWGWIRQPPGKGLEWIGAIYYIGNTHYNPSLKSRVTISIDTSKNQFSLNLNSVTAADTAIYYCARYEDTWNWFDPWGQGTLVTVSS
VL: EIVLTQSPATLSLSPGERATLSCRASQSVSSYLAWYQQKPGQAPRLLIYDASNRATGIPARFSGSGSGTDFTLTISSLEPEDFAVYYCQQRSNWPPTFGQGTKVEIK
notes: also called anti-TROP2 antibody 18E9
In assay [1], B2 had a Kd of 1.46 nM, a koff of 0.00117 s⁻¹ and a kon of 798000 M⁻¹ s⁻¹. Also, in assay [2], the Kd was 1.2 nM, the koff amounted to 0.00132 s⁻¹ and the kon came out at 1.1e+06 M⁻¹ s⁻¹.

B3: 3E6-6F7 (bispecific antibody, V domains shown)
VH 1: QVQLVESGAEVKKPGESLRISCRGSGYSFTSYWISWVRQMPGKGLEWMGRIDPSDSYTKYSPSFQGHVTISADKSISTAYLQWSSLKASDTAMYYCARRDGDYFDFDYWGQGTLVTVSS
VH 2: EVQLVQSGPGLVKPSETLSLTCTVSGGSIDSGYYYWGWIRQPPGKGLEWIGSIYYIGTTYYIPSLKSRVTISVDTSKNRFSLKLTSVTAADTAVYYCARQPITVAGHDAFDIWGQGTMVTVSS
VL: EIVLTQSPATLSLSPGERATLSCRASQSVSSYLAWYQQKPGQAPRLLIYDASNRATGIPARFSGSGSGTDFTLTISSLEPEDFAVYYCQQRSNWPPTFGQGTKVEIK
notes: also called anti-PTK7/TROP2 bispecific antibody 3E6-6F7
B3: the Kd was found to be 20.6 nM in assay [3]; 2.67 nM in assay [4]; 4.6 nM in assay [5]; 351 nM in assay [6]; 8.07 nM in assay [7]. In addition, the koff in assay [3] was found to be 0.00197 s⁻¹; in assay [4] it was 0.000369 s⁻¹; in assay [5], 0.000522 s⁻¹; in assay [6], 0.0455 s⁻¹; in assay [7] it was 0.00284 s⁻¹. In addition, the kon in assay [3] is 95500 M⁻¹ s⁻¹; in assay [4] it was 138000 M⁻¹ s⁻¹; in assay [5], 114000 M⁻¹ s⁻¹; in assay [6] it was 130000 M⁻¹ s⁻¹; in assay [7] it was 352000 M⁻¹ s⁻¹.

B4: 18F12 (antibody, V domains shown)
VH: QLQLKESGPGLVKPSETLSLTCTVSGGSISYYYWSWIRQPPGMGLEWIGNIYYSGDTNYNPSLRSRVTISIDMSKNQFSLRLNSVTAADTAVYYCARYDMFKWNYEAFDVWGQGTMVTVSS
VL: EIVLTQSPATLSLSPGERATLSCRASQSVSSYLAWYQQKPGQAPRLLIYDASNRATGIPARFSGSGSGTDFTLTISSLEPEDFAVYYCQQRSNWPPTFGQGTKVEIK
notes: also called anti-TROP2 antibody 18F12
Consider B4, for which, in assay [1], the dissociation constant (Kd) came to 7.16 nM, the koff turned out to be 0.00511 s⁻¹ and the on-rate (kon) was found to be 713000 M⁻¹ s⁻¹. Moreover, in assay [2], binding was put at a Kd of 5.41 nM, the off-rate (koff) came out at 0.00435 s⁻¹ and the kon came out at 803000 M⁻¹ s⁻¹.
